Data as given in article PMC7570871, “Evaluation of a New ^177Lu-Labeled Somatostatin Analog for the Treatment of Tumors Expressing Somatostatin Receptor Subtypes 2 and 5” (Molecules, 2020).

Experiments:
in vivo [1] = conditions: female, athymic Nude-Foxn1nu/Foxn1+, mouse, 100 pmol, total radioactivity
Description: The Veterinary Office (Department of Health) of the Cantonal Basel-Stadt approved the animal experiments (approval no. 2799) in accordance with the Swiss regulations for animal treatment. Female athymic Nude-Foxn1^nu/Foxn1^+ mice (Envigo, The Netherlands), 4–6 weeks old, were injected subcutaneously with 10^7 HEK-SST2 cells in the right shoulder and 10^7 HEK-SST5 cells in the left shoulder, freshly suspended in 100 μL sterile phosphate-buffered saline. The tumors were allowed to grow for 2–3 weeks.
At the selected time points, the mice were sacrificed and the organs of interest were collected, rinsed, blotted, weighed and counted in a γ-counter. The results are expressed as a percentage of injected activity per gram (%IA/g) obtained by extrapolation from counts of an aliquot taken from the injected solution as a standard.
At the preselected time points, the mice were sacrificed and the organs of interest were collected, rinsed, blotted, weighed and counted in a γ-counter. The results are expressed as a percentage of injected activity per gram (%IA/g) obtained by extrapolation from counts of an aliquot taken from the injected solution as a standard.

in vivo [2] = conditions: mouse, 100 pmol, total radioactivity
Description: The mice were sacrificed 4 h p.i. and accumulation of the radiotracer in the tumors and in all organs of interest was quantified in a γ-counter.

Q: What does the source list for `CC(C)[C@@H]1NC(=O)[C@H](CCCCN)NC(=O)[C@@H](Cc2c[nH]c3ccccc23)NC(=O)[C@H](Cc2ccc(O)c(I)c2)NC(=O)[C@@H](NC(=O)[C@@H](Cc2ccc(N)c(I)c2)NC(=O)CN2CCN(CC(=O)O)CCN(CC(=O)O)CCN(CC(=O)O)CC2)CSSC[C@@H](C(=O)N[C@H](C(N)=O)[C@@H](C)O)NC1=O` [[^177Lu]Lu-DOTA-ST8950, metal not drawn]?
A: tissue uptake at 24 h (in vivo [1]; Heart uptake): 0.08 ± 0.01 %ID/g; tissue uptake at 72 h (in vivo [1]; Heart uptake): 0.06 ± 0.02 %ID/g; tissue uptake at 168 h (in vivo [1]; Heart uptake): 0.04 ± 0.01 %ID/g; tissue uptake at 1 h (in vivo [1]; Intestine uptake): 1.95 ± 0.65 %ID/g; tissue uptake at 4 h (in vivo [1]; Intestine uptake): 1.14 ± 0.42 %ID/g; tissue uptake at 24 h (in vivo [1]; Intestine uptake): 0.51 ± 0.09 %ID/g; tissue uptake at 72 h (in vivo [1]; Intestine uptake): 0.28 ± 0.06 %ID/g; tissue uptake at 168 h (in vivo [1]; Intestine uptake): 0.12 ± 0.02 %ID/g; tissue uptake at 1 h (in vivo [1]; Kidney uptake): ~10 %ID/g; tissue uptake at 4 h (in vivo [1]; Kidney uptake): ~10 %ID/g; tissue uptake at 24 h (in vivo [1]; Kidney uptake): 5.99 ± 0.41 %ID/g; tissue uptake at 72 h (in vivo [1]; Kidney uptake): 3.2 ± 0.84 %ID/g; tissue uptake at 168 h (in vivo [1]; Kidney uptake): 1.42 ± 0.38 %ID/g; tissue uptake at 1 h (in vivo [1]; Liver uptake): 2.6 ± 0.42 %ID/g; tissue uptake at 4 h (in vivo [1]; Liver uptake): 2.19 ± 0.48 %ID/g; tissue uptake at 24 h (in vivo [1]; Liver uptake): 1.23 ± 0.16 %ID/g; tissue uptake at 72 h (in vivo [1]; Liver uptake): 0.85 ± 0.21 %ID/g; tissue uptake at 1 h (in vivo [1]; Lung uptake): 3.9 ± 0.84 %ID/g; tissue uptake at 4 h (in vivo [1]; Lung uptake): 1.69 ± 0.4 %ID/g; tissue uptake at 24 h (in vivo [1]; Lung uptake): 1.16 ± 0.1 %ID/g; tissue uptake at 72 h (in vivo [1]; Lung uptake): 0.46 ± 0.08 %ID/g; tissue uptake at 168 h (in vivo [1]; Lung uptake): 0.23 ± 0.09 %ID/g; tissue uptake at 1 h (in vivo [1]; Muscle uptake): 0.3 ± 0.07 %ID/g; tissue uptake at 4 h (in vivo [1]; Muscle uptake): 0.1 ± 0.02 %ID/g; tissue uptake at 24 h (in vivo [1]; Muscle uptake): 0.06 %ID/g; tissue uptake at 72 h (in vivo [1]; Muscle uptake): 0.04 ± 0.01 %ID/g; tissue uptake at 168 h (in vivo [1]; Muscle uptake): 0.01 %ID/g; tissue uptake at 1 h (in vivo [1]; Pancreas uptake): 6.36 ± 1.39 %ID/g; tissue uptake at 4 h (in vivo [1]; Pancreas uptake): 4.38 ± 1.02 %ID/g; tissue uptake at 1 h (in vivo [1]; SST2-tumor uptake): 14.2 ± 1.78 %ID/g; tissue uptake at 4 h (in vivo [1]; SST2-tumor uptake): 15.5 ± 3.63 %ID/g; tissue uptake at 24 h (in vivo [1]; SST2-tumor uptake): 9.32 ± 2.02 %ID/g; tissue uptake at 72 h (in vivo [1]; SST2-tumor uptake): 4.22 ± 1.43 %ID/g; tissue uptake at 168 h (in vivo [1]; SST2-tumor uptake): 0.79 ± 0.13 %ID/g; tissue uptake at 1 h (in vivo [1]; SST5-tumor uptake): 1.78 ± 0.35 %ID/g; tissue uptake at 4 h (in vivo [1]; SST5-tumor uptake): 1.87 ± 0.49 %ID/g; tissue uptake at 24 h (in vivo [1]; SST5-tumor uptake): 0.88 ± 0.16 %ID/g; tissue uptake at 72 h (in vivo [1]; SST5-tumor uptake): 0.35 ± 0.08 %ID/g; tissue uptake at 168 h (in vivo [1]; SST5-tumor uptake): 0.08 ± 0.01 %ID/g; tissue uptake at 1 h (in vivo [1]; Spleen uptake): 1.29 ± 0.19 %ID/g; tissue uptake at 4 h (in vivo [1]; Spleen uptake): 0.68 ± 0.11 %ID/g; tissue uptake at 1 h (in vivo [1]; Stomach uptake): 5.63 ± 0.79 %ID/g; tissue uptake at 4 h (in vivo [1]; Stomach uptake): 4.94 ± 0.9 %ID/g; tissue uptake at 4 h (in vivo [2]; Adrenal uptake): 5.45 ± 2.26 %ID/g; tissue uptake at 4 h (in vivo [2]; Blood uptake): 0.1 ± 0.02 %ID/g; tissue uptake at 4 h (in vivo [2]; Femur uptake): 0.56 ± 0.24 %ID/g; tissue uptake at 4 h (in vivo [2]; Heart uptake): 0.18 ± 0.03 %ID/g; tissue uptake at 4 h (in vivo [2]; Intestine uptake): 1.35 ± 0.14 %ID/g; tissue uptake at 4 h (in vivo [2]; Kidney uptake): 8.96 ± 1.39 %ID/g; tissue uptake at 4 h (in vivo [2]; Liver uptake): 2.28 ± 0.2 %ID/g; tissue uptake at 4 h (in vivo [2]; Lung uptake): 2.43 ± 1.21 %ID/g; tissue uptake at 4 h (in vivo [2]; Muscle uptake): 0.15 ± 0.02 %ID/g; tissue uptake at 4 h (in vivo [2]; SST(-)-tumor uptake): 0.7 ± 0.08 %ID/g; tissue uptake at 4 h (in vivo [2]; Spleen uptake): 0.84 ± 0.06 %ID/g; tissue uptake at 4 h (in vivo [2]; Stomach uptake): 4.89 ± 0.94 %ID/g
